US20030162942A1 (DYAX, published 2003)
Numbering of substitutions follows the chain as printed. Positions of bridges follow the written chain, without caps; N, C: chain ends. No end group written: not given here.

B1: 15-amino acid segment derived from affinity ligand isolate #109 (peptide)
peptide: RLCPKTDLGCMKDSD
modifications: disulfide 3-10; also: bound to a chromatographic support
notes: also called truncated 15-amino acid segment of the isolate #109; C3-C10 loop
B2: CMTI-I analogue 120, phage isolate (designed binder)
chain: RWCPKTSLECMKDSDCLAECVCLEHGYCGAGPSYIEGRIVGSA
notes: not shown: mature gene III protein of M13 phage
B3: CMTI-I analogue 232, phage isolate (designed binder)
chain: B2 chain with E9G
notes: as for B2
B4: CMTI-I analogue 235, phage isolate (designed binder)
chain: B2 chain with T6S, S7T, E9G
notes: as for B2
B5: CMTI-I analogue 112, phage isolate (designed binder)
chain: B2 chain with K5T, T6A, S7P
notes: as for B2
B6: CMTI-I analogue 229, phage isolate (designed binder)
chain: B2 chain with T6Y, S7T
notes: as for B2
B7: CMTI-I analogue 118, phage isolate (designed binder)
chain: B2 chain with K5R, S7V, L8R, E9R
notes: as for B2
B8: CMTI-I analogue 233, phage isolate (designed binder)
chain: B2 chain with T6Y, S7T
notes: as for B2
B9: CMTI-I analogue 236, phage isolate (designed binder)
chain: B2 chain with K5R, T6S
notes: as for B2
B10: CMTI-I analogue 108, phage isolate (designed binder)
chain: B2 chain with P4S, T6S
notes: as for B2
B11: CMTI-I analogue 109, phage isolate (designed binder)
chain: B2 chain with W2L, S7D, E9G
notes: as for B2
B12: CMTI-I analogue 102, phage isolate (designed binder)
chain: B2 chain with W2L, S7Y, E9G
notes: as for B2
B13: CMTI-I analogue 116, phage isolate (designed binder)
chain: B2 chain with P4I, K5R, S7D, E9G
notes: as for B2
B14: CMTI-I analogue 237, phage isolate (designed binder)
chain: B2 chain with K5R, T6S, S7N
notes: as for B2
B15: CMTI-I analogue 224, phage isolate (designed binder)
chain: B2 chain with K5R, T6S
notes: as for B2
B16: CMTI-I analogue 104, phage isolate (designed binder)
chain: B2 chain with P4S, K5T, T6Y, E9G
notes: as for B2
B17: CMTI-I analogue 226, phage isolate (designed binder)
chain: B2 chain with K5R, T6S, S7N
notes: as for B2
B18: CMTI-I analogue 106, phage isolate (designed binder)
chain: B2 chain with P4S, K5T, T6Y, E9G
notes: as for B2
B19: CMTI-I analogue 228, phage isolate (designed binder)
chain: B2 chain with T6Y, S7T
notes: as for B2
B20: CMTI-I analogue 222, phage isolate (designed binder)
chain: B2 chain with T6S, S7T, E9G
notes: as for B2
B21: CMTI-I analogue 114, phage isolate (designed binder)
chain: B2 chain with T6S, S7A, E9D, M11K
notes: as for B2
B22: CMTI-I analogue 113, phage isolate (designed binder)
chain: B2 chain with W2L, S7D, E9G
notes: as for B2
B23: CMTI-I analogue 119, phage isolate (designed binder)
chain: B2 chain with S7H, L8K
notes: as for B2
B24: CMTI-I analogue 111, phage isolate (designed binder)
chain: B2 chain with K5R, S7V, L8Q
notes: as for B2
B25: CMTI-I analogue 223, phage isolate (designed binder)
chain: B2 chain with T6Y, S7T
notes: as for B2
B26: CMTI-I analogue 110, phage isolate (designed binder)
chain: B2 chain with T6S, L8M, E9G, M11K
notes: as for B2
B27: CMTI-I analogue 103, phage isolate (designed binder)
chain: B2 chain with P4S, K5T, T6Y, E9G
notes: as for B2
B28: CMTI-I analogue 105, phage isolate (designed binder)
chain: B2 chain with W2L
notes: as for B2
B29: CMTI-I analogue 221, phage isolate (designed binder)
chain: B2 chain with T6S, S7T, E9G
notes: as for B2
B30: CMTI-I analogue 117, phage isolate (designed binder)
chain: B2 chain with E9G
notes: as for B2
B31: CMTI-I analogue 107, phage isolate (designed binder)
chain: B2 chain with W2L
notes: as for B2
B32: CMTI-I analogue 101, phage isolate (designed binder)
chain: B2 chain with E9G
notes: as for B2
B33: CMTI-I analogue 234, phage isolate (designed binder)
chain: B2 chain with K5R, T6S
notes: as for B2
B34: CMTI-I analogue 238, phage isolate (designed binder)
chain: B2 chain with K5R, T6S, S7N
notes: as for B2
B35: CMTI-I analogue 115, phage isolate (designed binder)
chain: B2 chain with P4T, L8R
notes: as for B2

Molecular target: T1, recombinant human tissue-type plasminogen activator (tPA) (human, UniProt P00750 36-562)
T1 construct: Immobilized on ReactiGel agarose beads for the phage work; Used in solution for the column tests
Test: peptide bound to a chromatographic support

T1 sequence (P00750 36-562 limits assumed): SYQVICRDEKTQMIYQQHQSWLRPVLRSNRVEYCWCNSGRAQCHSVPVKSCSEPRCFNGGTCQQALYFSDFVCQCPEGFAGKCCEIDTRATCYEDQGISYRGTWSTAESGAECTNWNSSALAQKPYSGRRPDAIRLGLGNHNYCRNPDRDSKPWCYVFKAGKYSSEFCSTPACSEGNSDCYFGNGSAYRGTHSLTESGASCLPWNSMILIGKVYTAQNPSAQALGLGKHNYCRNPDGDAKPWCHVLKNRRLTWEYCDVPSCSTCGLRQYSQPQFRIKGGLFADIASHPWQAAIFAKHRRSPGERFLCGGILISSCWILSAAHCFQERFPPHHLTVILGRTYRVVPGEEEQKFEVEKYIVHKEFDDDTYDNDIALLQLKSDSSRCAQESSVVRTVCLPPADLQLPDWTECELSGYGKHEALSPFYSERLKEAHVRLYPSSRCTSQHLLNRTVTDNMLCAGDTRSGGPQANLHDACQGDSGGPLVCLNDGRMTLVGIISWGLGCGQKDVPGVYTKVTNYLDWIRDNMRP

Row | Binder | binding result
1 | B1 | binds

Molecular target: human serum protease plasmin (human, UniProt P00747 97-810, limits assumed)
Test: phage binding to protein on beads (data not shown)

Sequence of human serum protease plasmin (P00747 97-810 limits assumed): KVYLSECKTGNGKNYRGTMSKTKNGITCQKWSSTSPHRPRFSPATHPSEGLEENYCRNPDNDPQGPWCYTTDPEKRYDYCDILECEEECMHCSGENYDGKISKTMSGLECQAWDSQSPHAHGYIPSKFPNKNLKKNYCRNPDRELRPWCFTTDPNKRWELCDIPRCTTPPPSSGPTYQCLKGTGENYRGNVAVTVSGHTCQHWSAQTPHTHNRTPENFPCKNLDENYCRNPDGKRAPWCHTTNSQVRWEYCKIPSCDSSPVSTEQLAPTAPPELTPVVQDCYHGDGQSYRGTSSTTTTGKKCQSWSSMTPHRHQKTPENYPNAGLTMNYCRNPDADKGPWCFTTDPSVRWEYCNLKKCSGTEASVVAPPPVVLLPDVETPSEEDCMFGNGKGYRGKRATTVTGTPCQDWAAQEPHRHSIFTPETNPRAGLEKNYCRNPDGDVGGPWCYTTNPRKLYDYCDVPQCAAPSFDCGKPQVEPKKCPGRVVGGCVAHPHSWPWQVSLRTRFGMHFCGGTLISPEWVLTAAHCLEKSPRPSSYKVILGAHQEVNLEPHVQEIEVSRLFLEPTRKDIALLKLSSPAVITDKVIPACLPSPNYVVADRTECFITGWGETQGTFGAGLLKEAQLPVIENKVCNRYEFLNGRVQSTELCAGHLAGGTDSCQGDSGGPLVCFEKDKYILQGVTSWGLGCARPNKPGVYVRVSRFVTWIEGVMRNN

Row | Binder | binding result
2 | B2 | no binding
3 | B3 | no binding
4 | B4 | no binding
5 | B5 | no binding
6 | B6 | no binding
7 | B7 | no binding
8 | B8 | no binding
9 | B9 | no binding
10 | B10 | no binding
11 | B11 | no binding
12 | B12 | no binding
13 | B13 | no binding
14 | B14 | no binding
15 | B15 | no binding
16 | B16 | no binding
17 | B17 | no binding
18 | B18 | no binding

Row | Binder | binding result
19 | B19 | no binding
20 | B20 | no binding
21 | B21 | no binding
22 | B22 | no binding
23 | B23 | no binding
24 | B24 | no binding
25 | B25 | no binding
26 | B26 | no binding
27 | B27 | no binding
28 | B28 | no binding
29 | B29 | no binding
30 | B30 | no binding
31 | B31 | no binding
32 | B32 | no binding
33 | B33 | no binding
34 | B34 | no binding
35 | B35 | no binding

Molecular target: human serum protease thrombin (human, UniProt P00734 328-622)
Test: phage binding to protein on beads (data not shown)

Row | Binder | binding result
36 | B2 | no binding
37 | B3 | no binding
38 | B4 | no binding
39 | B5 | no binding
40 | B6 | no binding
41 | B7 | no binding
42 | B8 | no binding
43 | B9 | no binding
44 | B10 | no binding
45 | B11 | no binding
46 | B12 | no binding
47 | B13 | no binding
48 | B14 | no binding
49 | B15 | no binding
50 | B16 | no binding
51 | B17 | no binding
52 | B18 | no binding

Row | Binder | binding result
53 | B19 | no binding
54 | B20 | no binding
55 | B21 | no binding
56 | B22 | no binding
57 | B23 | no binding
58 | B24 | no binding
59 | B25 | no binding
60 | B26 | no binding
61 | B27 | no binding
62 | B28 | no binding
63 | B29 | no binding
64 | B30 | no binding
65 | B31 | no binding
66 | B32 | no binding
67 | B33 | no binding
68 | B34 | no binding
69 | B35 | no binding

Molecular target: T1, recombinant human tissue-type …
Test: phage isolate binding to and pH release from immobilized tPA

Row | Binder | binding result
70 | B10 | binds
71 | B11 | binds
72 | B18 | binds
73 | B28 | binds
74 | B31 | binds

Molecular target: T1, recombinant human tissue-type …
Test: phage display selection on tPA agarose beads, binding at pH 7
Method: For this work, tPA was purchased from CalBiochem (#612200) and immobilized on ReactiGel™ agarose beads from Pierce Chemical Company by methods described in Markland et al. (1996). Approximately 200 μg of tPA were coupled to 200 μL of ReactiGel™ slurry.
The phage libraries described were screened for binding to tPA through four rounds. In the first round, the phage libraries were mixed in separate reactions with tPA agarose beads at pH 7 in phosphate-buffered saline (PBS). Bovine serum albumin (BSA) was added at 0.1% to reduce non-specific binding. Unbound phage were washed off at pH 7, and the bound phage eluted at pH 2 for the first screen only. […] Pool A consisted of the combined outputs from the CMTI and Lib#1 libraries, and Pool B consisted of the combined outputs of the Lib#3 and Lib#5 libraries. The binding of pooled libraries was performed at pH 7, however, the first elution to remove bound phage was carried out at pH 5 and a subsequent elution at pH 2 to elute phage that are released in the pH 5-pH 2 range. This was repeated twice more for a total of 4 rounds of selection.

Row | Binder | binding result
75 | B2 | binds
76 | B3 | binds
77 | B4 | binds
78 | B5 | binds
79 | B6 | binds
80 | B7 | binds
81 | B8 | binds
82 | B9 | binds
83 | B12 | binds
84 | B13 | binds
85 | B14 | binds
86 | B15 | binds
87 | B16 | binds
88 | B17 | binds
89 | B19 | binds
90 | B20 | binds
91 | B21 | binds
92 | B22 | binds
93 | B23 | binds
94 | B24 | binds
95 | B25 | binds
96 | B26 | binds
97 | B27 | binds
98 | B29 | binds
99 | B30 | binds
100 | B32 | binds
101 | B33 | binds
102 | B34 | binds
103 | B35 | binds
